Experimental data published in patent US20250042944A1 (NATIONAL MARINE BIODIVERSITY INSTITUTE OF KOREA, published 2025).
Bridges are numbered along the chain shown (N, C = ends). Where no end group is shown, it is not given here.

T1: recombinant human oxytocin receptor (human, UniProt P30559 1-389)
T1 sequence (looked up): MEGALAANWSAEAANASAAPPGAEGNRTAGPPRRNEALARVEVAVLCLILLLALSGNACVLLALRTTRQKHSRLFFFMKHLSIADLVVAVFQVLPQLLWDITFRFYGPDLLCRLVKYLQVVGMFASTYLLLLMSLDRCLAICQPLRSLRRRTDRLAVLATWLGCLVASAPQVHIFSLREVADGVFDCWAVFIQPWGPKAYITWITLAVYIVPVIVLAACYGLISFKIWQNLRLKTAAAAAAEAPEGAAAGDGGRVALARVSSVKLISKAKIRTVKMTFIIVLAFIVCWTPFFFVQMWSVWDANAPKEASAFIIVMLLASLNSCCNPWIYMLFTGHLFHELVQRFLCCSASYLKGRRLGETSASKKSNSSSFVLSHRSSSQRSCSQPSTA

T2: recombinant human vasopressin V1B receptor (human, UniProt P47901 1-424)
T2 sequence (looked up): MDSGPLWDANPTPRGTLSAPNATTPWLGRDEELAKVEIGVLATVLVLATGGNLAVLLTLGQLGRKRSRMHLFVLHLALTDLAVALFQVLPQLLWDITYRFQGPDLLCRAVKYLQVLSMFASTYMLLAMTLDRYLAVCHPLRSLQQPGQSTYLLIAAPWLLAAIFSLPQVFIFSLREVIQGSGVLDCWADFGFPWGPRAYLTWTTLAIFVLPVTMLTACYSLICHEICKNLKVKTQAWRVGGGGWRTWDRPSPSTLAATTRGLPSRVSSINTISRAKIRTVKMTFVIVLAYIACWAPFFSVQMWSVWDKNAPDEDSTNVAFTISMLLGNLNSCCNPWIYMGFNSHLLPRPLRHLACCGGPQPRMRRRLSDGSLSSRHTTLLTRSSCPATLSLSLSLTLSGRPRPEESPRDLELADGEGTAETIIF


How the values were obtained:
Experiment in all cases: cell-based or functional assay
[1] = target: T1, recombinant human oxytocin receptor
[2] = target: T2, recombinant human vasopressin V1B …
[3] = target: recombinant human vasopressin V2 receptor (human, UniProt P30518 1-371)

Row | IC50 of receptor inhibition (calcium response to 30 nM oxytocin, calcium dye fluorescence imaging, ECV304 cells) [1] | EC50 of receptor activation (intracellular calcium increase, calcium dye fluorescence imaging, RBL cells) [2] | EC50 of receptor activation (intracellular cAMP accumulation, HTRF, CHO cells) [3] | Binder
1 | 16 µM | 0.214 µM |  | CFFRNCPPG-NH2 (disulfide 1-6; N-terminus assumed; SMILES N=C(N)NCCC[C@@H]1NC(=O)[C@H](Cc2ccccc2)NC(=O)[C@H](Cc2ccccc2)NC(=O)[C@@H](N)CSSC[C@@H](C(=O)N2CCC[C@H]2C(=O)N2CCC[C@H]2C(=O)NCC(N)=O)NC(=O)[C@H](CC(N)=O)NC1=O) [Pro-sepiatocin]
2 |  | 0.00094 µM | 0.042 µM | CYFRNCPAG-NH2 (disulfide 1-6; N-terminus assumed; SMILES C[C@H](NC(=O)[C@@H]1CCCN1C(=O)[C@@H]1CSSC[C@H](N)C(=O)N[C@@H](Cc2ccc(O)cc2)C(=O)N[C@@H](Cc2ccccc2)C(=O)N[C@@H](CCCNC(=N)N)C(=O)N[C@@H](CC(N)=O)C(=O)N1)C(=O)NCC(N)=O) [Squidtocin]
